Assay results from patent US20240131155A1, “T CELLS FOR USE IN THERAPY” (Erasmus University Medical Center Rotterdam, priority 2021, published 2024).
Peptide text beside a SMILES is read from it.

Columns and labels:
CD8+ T cells [1] = assay: Enrichment of epitope-specific CD8 T cells from healthy donors, epitope-specific IFNg production (ELISA); assay type: cell-based, human; conditions: Table 4; positive co-cultures / co-cultures tested
Method: (§1) Enrichment of epitope-specific CD8 T cells was performed according to the protocol described by Butler et al., Clin Cancer Res.;13(6):1857-1867 (2007), doi:10.1158/1078-0432, but included the following amendments. CD8+ T lymphocytes were collected from PBMCs by magnetic-activated cell sorting (MACS) according to the CD8 isolation kit (Miltenyi Biotec). CD8+ T cells with >95% purity were subsequently cultured in T cell medium supplemented with IL-2 (36 IU/mL; but no gentamycin) for 1 day, after which expansion cycles started. K562ABC cells (kindly provided by prof. Bruce Levine, University of Pennsylvania, PA) were loaded with 10 μg/ml ROPN1 and/or ROPN1B peptide and incubated for 5 h at RT in serum-free medium, after which cells were washed and fixed with 0,1% paraformaldehyde. After washing, K562ABC cells were suspended at 0.1×10^6/mL and co-cultured with T cells in a 1:20 ratio. IL-2 (36 IU/mL) and IL-15 ([…]) were added at days 1 and 3 days after start of co-culture, and after 6 days, T cells were counted, suspended at 2×10^6/mL and rested for 1 day, after which the next cycle commenced (this schedule continued up to 4 or 5 cycles). Following 4 and 5 cycles, T cells were stained with pMHC multimers (HLA*0201/MLN, Immudex, Copenhagen, Denmark). pMHC-PE were pre-incubated at RT for 10 min followed by incubation with 7AAD, anti-CD3-FITC and anti-CD8-APC for 20 min. Cells were fixed with 1% paraformaldehyde and TCR expression was measured with flow cytometry and analyzed using FlowJoX software. FIG. 4A schematically depicts the procedure to enrich epitope-specific T cells, and obtainthe corresponding TCR genes.
Enriched T cells were tested for ROPN1 and/or ROPN1B epitope-specific IFNY production. To this end, T2 cells (4×10^6/mL) were loaded with peptide (20 ng/mL) for 30 min. T cells (2×10^5) were cultured in a 1:1 ratio with T2 cells in a round bottom 96-wells plate, and the next day supernatant was collected and IFN-γ production was measured with an Enzyme-linked immunosorbent assay (ELISA, Invitrogen) according to manufacturer's protocol (FIG. 4B). T2 cells without peptide were included as a negative control; and staphylococcal enterotoxin B (0.1 μg, Sigma) was used as a positive control.
Enrichment of epitope-specific T cells was performed by co-culturing naïve T cells with CD11c-positive cells that were loaded with peptide. PBMCs were passed through a cell strainer (70 μm) and used for the isolation of naïve T cells and CD11c cells. To isolate CD11c-positive cells (typically dendritic cells, DC), PBMCs were stained for 10 mM at 4° C. with Fc block (10 μL/10^7 PBMCs, BD Pharmingen, Vianen, the Netherlands), after which cells were stained with CD11c-PE antibody (10 μL/10^7 PBMCs, BD Pharmingen) for 30 mM at 4° C., washed, and incubated with PE beads (10 μL/10^7 PBMCs, Miltenyi Biotech, Bergisch Gladbach, Germany) for another […] at 4° C. After washing, cells were dissolved in magnetic-activated cell sorting (MACS) buffer and passed through a MACS LS column (Miltenyi Biotec) to positively select CD11c cells. After selection, CD11c cells were irradiated with 30 Gy, and cultured overnight in a 24-wells plate (1×10^6/mL) in RPMI medium supplemented with 1% human serum (Sanquin), 1% antibiotics, […] L-glutamine, a DC maturation cocktail (a mixture of GM-CSF (10 ng/mL, ImmunoTools, Germany), IL-4 (10 ng/mL, ImmunoTools), LPS (100 ng/mL, Invitrogen, Goteborg, Sweden) and IFNY (10 ng/mL, Preprotech, London, United Kingdom)), as well as peptide (10 pg/mL). Naïve T cells were isolated with use of the Naïve T Cell isolation kit (Miltenyi Biotec) according to the manufacturer's protocol, and suspended in RPMI medium supplemented with 5% human serum (Sanquin), 1% antibiotics, […] L-glutamine and IL-7 (5 ng/mL, BD Pharmingen). The run-through of the naïve T cell selection was frozen down and used for re-stimulation of epitope-specific T cells. […]

CD8+ T cells [2] = assay: peptide:MHC multimer/tetramer staining of enriched T cells (flow cytometry); assay type: cell-based, human; conditions: Table 4; enriched T cells after enrichment cycles
Method: as §1
Following enrichment, T cells were tested for ROPN1 and/or ROPN1B epitope-specific IFNY production. To this end, T2 cells (1×10^6/mL) were loaded with peptide (20 ng/mL) for 30 min, after which T cells (1×10^5) were cultured in a 1:1 ratio with T2 cells in a round bottom 96-wells plate for 18 h. Supernatant was collected and IFN-γ production was measured with an Enzyme-linked immunosorbent assay (ELISA, BioLegend) according to the manufacturer's protocol (FIG. 9A). T2 cells loaded with an irrelevant peptide were included as a negative control. T cell IFNg production was considered epitope-specific in case levels exceeded 200 pg/ml, and levels were minimally twice as high as for irrelevant peptide (see for full listing of criteria, FIG. 8). T cells that fulfilled these criteria were stained with peptide:MHC (pMHC) tetramers to determine the frequency of epitope-specific T cells. Empty Loadable HLA Tetramers (5 μL, Tetramer shop, Kongens Lyngby, Denmark) were incubated with 0.5 μL peptide (200 μM) for 30 min on ice. Complexes of pMHC were centrifuged (3300 g, 5 min) and incubated with 0.1×10^6 T cells for 15 min at 37° C. in the dark. Next, an antibody cocktail containing CD3-FITC (1:30, BD) and CD8-APC (1:300, eBiosciences) was added and incubated for an additional 30 min at 4° C. in the dark. Finally, T cells were washed twice and fixed with 1% paraformaldehyde (PFA), after which events were acquired with FACSCelesta (BD) and analyzed using FlowJoX software.

[3] = tested on: ROPN1 or ROPN1B over-expressing MDA-MB231 tumor cells; assay: IFNg production of TCR T cells co-cultured with ROPN1 or ROPN1B over-expressing tumor cells (endogenously processed epitope); assay type: cell-based, human; conditions: Table 4; responding TCRs / TCRs tested, T cells transduced with TCR specific for the epitope
Method: In a first series of in vitro tests, TCR-transduced T cells (6×10^4/well in a 96-well plate) were co-cultured with ROPN1 or ROPN1B over-expressing MDA-MB231 tumor cells (2×10^4/well) in a total volume of 200 μl of T cell medium for 24 h at 37° C. The ROPN1 or ROPN1B over-expressing tumor cells were generated as described under ‘generation and culture of cell lines and T cells’ (see above), and tumor cells were pre-treated 48 h with IFN-Y before co-culture with T cells. […] T cells that fulfilled these criteria (examples in FIG. 10A) were assessed for their sensitivity towards their cognate epitope. […] EC50 values were calculated using GraphPad Prism 5 software.

HLA-A2 = molecular target: T1, HLA-A2 (Homo sapiens, UniProt P04439, D140Y/D185E/D98H/E176V/E277Q/G131W/G231S/I119V/I121R/I166T/I218V/L300P/L318F/N151K/N90K/P208A/P217A/Q86G/Q94H/R138H/R169H/T345S); assay: HLA-A2 stabilization assay using T2 cells; assay type: binding; conditions: Table 4 (Examples 1 and 2); EC50 of peptide titration on T2 cells; read-out: Affinity for HLA.A2.01
T1 construct: The HLA-A2 stabilization assay was performed using T2 cells; endogenous in cells; host or cells: T2 cells (LCLxT lymphoblastoid hybrid cell line 0.1743CEM.T2)

[4] = molecular target: T2, HLA-A2 (HLA-A2:01) on T2 cells (human); assay: HLA-A2 stabilization assay on T2 cells, peptide titration; amplitude relative to that of reference peptide YLE [panel D]
T2 construct: detected with anti-HLA-A2 mAb BB7.2

[5] = molecular target: T2, HLA-A2 (HLA-A2:01) on T2 cells; assay: HLA-A2 stabilization assay on T2 cells (anti-HLA-A2-PE, flow cytometry), single peptide concentration [panel D]
[6] = molecular target: T2, HLA-A2 (HLA-A2:01) on T2 cells; assay: HLA-A2 stabilization assay on T2 cells, peptide titration; EC50 calculated with GraphPad [panel D]
[7] = molecular target: T2, HLA-A2 (HLA-A2:01) on T2 cells; assay: HLA-A2 stabilization assay on T2 cells, peptide titration, flow cytometry with anti-HLA-A2 BB7.2; column Affinity for HLA A2:01 (M)
[8] = molecular target: T2, HLA-A2 (HLA-A2:01) on T2 cells; assay: HLA-A2 stabilization assay on T2 cells, peptide titration (Example 2, repeated); column Affinity for HLA.A2.01 (M)
[9] = molecular target: T2, HLA-A2 (HLA-A2:01) on T2 cells; assay: HLA-A2 stabilization assay on T2 cells (anti-HLA-A2-PE, flow cytometry), single peptide concentration 25 ug/mL [panel E]
[10] = molecular target: T2, HLA-A2 (HLA-A2:01) on T2 cells; assay: HLA-A2 stabilization assay on T2 cells, peptide titration; amplitude = highest data point corrected for baseline [panel E]
[11] = molecular target: T2, HLA-A2 (HLA-A2:01) on T2 cells; assay: HLA-A2 stabilization assay on T2 cells, peptide titration (Example 2); column Affinity for HLA.A2.01 (M)
[12] = molecular target: T2, HLA-A2 (HLA-A2:01) on T2 cells; assay: HLA-A2 stabilization assay on T2 cells (anti-HLA-A2-PE, flow cytometry), single peptide concentration [panel B; D00018 Figure 7 continued, panel D]

Row | Molecule | Amplitude [4] | Minimum stability [5] | EC50 [7] | EC50 [8] | Minimum stability [9] | Amplitude [10] | also measured
1 | CC[C@H](C)[C@H](NC(=O)[C@H](CC(C)C)NC(=O)CNC(=O)[C@H](CC(=O)O)NC(=O)[C@@H]1CCCN1C(=O)CNC(=O)[C@@H](NC(=O)[C@@H](NC(=O)[C@@H](N)CCC(=O)O)C(C)C)[C@@H](C)CC)C(=O)N[C@H](C(=O)N[C@H](C(=O)O)C(C)C)[C@@H](C)O (H-EVIGPDGLITV-OH; N-terminus and C-terminus assumed) |  |  |  |  |  |  | T cell responses observed (IFNg) against epitope (CD8+ T cells [1]): 2/2 co-cultures; pMHC staining % pMHC+ CD8+ in CD3+ (CD8+ T cells [2]): 8.25%; T cell responses observed (IFNg) against endogenously presented epitope [3]: 1/7 responses; EC50 (HLA-A2): 0.655 µM
2 | ALACSALGV (Synthetic peptide) [Epitope 7 peptide ALACSALGV of ROPN1 and ROPN1B] | 0.852 relative to YLE | 1.26 fold change over baseline | 3.16 µM | 2.84 µM | 1.37 fold change over baseline | 2180 geometric mean normalized to baseline | 
3 | KTLKIVCEV (Synthetic peptide) [Epitope 3 peptide KTLKIVCEV of ROPN1 and ROPN1B] | 0.844 relative to YLE | 1.26 fold change over baseline | 4.35 µM | 4.4 µM | 1.18 fold change over baseline | 2620 geometric mean normalized to baseline | 
4 | FLYTYIAKV (Synthetic peptide) [Epitope 4 (FLY-A) peptide FLYTYIAKV of ROPN1] | 0.888 relative to YLE | 1.63 fold change over baseline | 10.9 µM | 8.11 µM | 1.5 fold change over baseline | 2710 geometric mean normalized to baseline | 
5 | FQFLYTYIA (Synthetic peptide) [Epitope 6 peptide FQFLYTYIA of ROPN1 and ROPN1B] | 0.739 relative to YLE | 1.14 fold change over baseline | 3.28 µM | 3.43 µM | 1.32 fold change over baseline | 2380 geometric mean normalized to baseline | 

Now from value to molecule, other results behind:

Row | Amplitude [4] | Minimum stability [5] | EC50 [7] | EC50 [8] | Minimum stability [9] | Amplitude [10] | Molecule | also measured
6 | 0.38 relative to YLE | 1.14 fold change over baseline |  |  |  |  | LPRIPFSTF (ROPN1B, eluted) | EC50 [6]: 0.0664 µM
7 | 0.924 relative to YLE | 1.4 fold change over baseline | 11.4 µM | 10.5 µM | 1.29 fold change over baseline | 3480 geometric mean normalized to baseline | AQMWKVVNL (Synthetic peptide) [Epitope 8 peptide AQMWKVVNL of ROPN1 and ROPN1B] | 
8 | 1.12 relative to YLE | 1.57 fold change over baseline |  |  |  |  | EVIGPDGLITV (Synthetic peptide) [Epitope 11 (EVI) peptide EVIGPDGLITV of ROPN1B] | EC50 [11]: 0.655 µM
9 | 0.489 relative to YLE | 1.18 fold change over baseline |  |  |  |  | GVTITKTLK (ROPN1A and ROPN1B, eluted) | EC50 [6]: 0.57 µM
10 |  | 0.92 fold change over baseline |  |  |  |  | SALGVTITK (ROPN1A and ROPN1B, eluted) | binding result [12]: no binding
11 | 0.593 relative to YLE | 1.42 fold change over baseline |  |  |  |  | FLYTYIAEV (Synthetic peptide) [Epitope 10 (FLY-B) peptide FLYTYIAEV of ROPN1B] | EC50 [11]: 21.1 µM
12 |  | 1.08 fold change over baseline |  |  | 1.17 fold change over baseline |  | AELTPELLKI (Eluted from ROPN1B-overexpressing MDA-MB231 cells; mapped in silico to HLA-B40:01) [Epitope 16 peptide AELTPELLKI (10-mer derived from immunopeptidome)] | binding result [12]: no binding
13 | 0.842 relative to YLE | 1.2 fold change over baseline | 91.2 µM | 38.2 µM | 1.19 fold change over baseline | 2660 geometric mean normalized to baseline | KMLKEFAKA (Synthetic peptide) [Epitope 9 peptide KMLKEFAKA of ROPN1 and ROPN1B] | 
